# From doi:10.1101/2024.03.15.585201 (bioRxiv, 2024)
# B1: BmrA E504A mutant (natural protein)
# chain: MPTKKQKSKSKLKPFFALVRRTNPSYGKLAFALALSVVTTLVSLLIPLLTKQLVDGFSMSNLSGTQIGLIALVFFVQAGLSAYATYALNYNGQKIISGLRELLWKKLIKLPVSYFDTNASGETVSRVTNDTMVVKELITTHISGFITGIISVIGSLTILFIMNWKLTLLVLVVVPLAALILVPIGRKMFSISRETQDETARFTGLLNQILPEIRLVKASNAEDVEYGRGKMGISSLFKLGVREAKVQSLVGPLISLVLMAALVAVIGYGGMQVSSGELTAGALVAFILYLFQIIMPMGQITTFFTQLQKSIGATERMIEILAEEEEDTVTGKQIENAHLPIQLDRVSFGYKPDQLILKEVSAVIEAGKVTAIVGPSGGGKTTLFKLLERFYSPTAGTIRLGDEPVDTYSLESWREHIGYVSQESPLMSGTIRENICYGLERDVTDAEIEKAAEMAYALNFIKELPNQFDTEVGERGIMLSGGQRQRIAIARALLRNPSILMLDAATSSLDSQSEKSVQQALEVLMEGRTTIVIAHRLSTVVDADQLLFVEKGEITGRGTHHELMASHGLYRDFAEQQLKMNADLENKAG
# Molecular target: the molecule itself
# Experiment: cryo-EM structure
protein,measurement,value
B1,stoichiometry N,2
